According to patent US20210032673A1:

What was measured:
[1] = target: endogenous Arf6 of HEK293T cells (UniProt P62330); test: cell-based or functional assay
[2] = target: calmodulin-sepharose (BioVision) (Homo sapiens (Human)) (UniProt P0DP23); test: luciferase-IQSEC2 cell extract on calmodulin-sepharose, no added calcium (5 mM EGTA, apocalmodulin), 0.1% Triton X-100, n=6
[3] = target: calmodulin-sepharose (BioVision) (Homo sapiens (Human)) (UniProt P0DP23); test: calcium dose-response of luciferase-IQSEC2 binding to calmodulin-sepharose; the number is a calcium concentration, not a protein concentration
[4] = target: calmodulin-sepharose (BioVision) (Homo sapiens (Human)) (UniProt P0DP23); test: luciferase-IQSEC2 cell extract on calmodulin-sepharose, free calcium greater than 200 nM (calcium-calmodulin), 0.1% Triton X-100, n=11
[5] = target: human Calm3 (NM_005184) with C-terminal triple FLAG tag (human) (UniProt P0DP25); test: Lumier assay in HEK293T cells, renilla luciferase after anti-FLAG pull-down
[6] = target: human Calm2 (NM_001743) with C-terminal triple FLAG tag (human) (UniProt P0DP24); test: as above
[7] = target: human Calm1 (NM_006888) with C-terminal triple FLAG tag (human) (UniProt P0DP23); test: as above
[8] = target: GFP-FLAG [GFP: P42212]; test: Lumier assay in HEK293T cells, negative control interactor GFP-FLAG (background)
[9] = target: human Calm3 (NM_005184) with C-terminal triple FLAG tag (human) (UniProt P0DP25); test: Lumier assay in HEK293T cells, renilla luciferase after pull-down normalized to FLAG ELISA
[10] = target: human Calm2 (NM_001743) with C-terminal triple FLAG tag (human) (UniProt P0DP24); test: as above
[11] = target: human Calm1 (NM_006888) with C-terminal triple FLAG tag (human) (UniProt P0DP23); test: as above

endogenous Arf6 of HEK293T cells, sequence (P62330 2-175 limits assumed): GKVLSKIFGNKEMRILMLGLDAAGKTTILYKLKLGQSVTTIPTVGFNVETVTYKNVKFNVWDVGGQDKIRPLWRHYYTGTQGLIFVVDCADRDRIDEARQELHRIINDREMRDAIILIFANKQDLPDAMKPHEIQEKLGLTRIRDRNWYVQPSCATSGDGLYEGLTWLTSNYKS

Substance | Arf6-GTP promoted, against wild type IQSEC2 protein [1] | increase in total Arf6-GTP by ELISA against cells expressing wild type IQSEC2 [1] | total Arf6-GTP by ELISA, equivalent amounts of protein extract of stable HEK293T lines (spectrophotometric units) [1] | luciferase units bound to calmodulin sepharose (luciferase units) [2] | free calcium concentration at half-maximal binding [3] | luciferase units bound to calmodulin sepharose (luciferase units) [4] | fold difference of interaction strength, wild type against A350V IQSEC2 [5] | fold difference of interaction strength, wild type against A350V IQSEC2 [6] | fold difference of interaction strength, wild type against A350V IQSEC2 [7] | fold change of interaction strength, wild type against mutant IQSEC2 [8] | fold higher normalized interaction score, wild type against A350V IQSEC2 [9] | fold higher normalized interaction score, wild type against A350V IQSEC2 [10] | fold higher normalized interaction score, wild type against A350V IQSEC2 [11] | Arf6 activation (Arf6-GTP, GGA3 pulldown and immunoblot) with ionomycin, fold over sham transfected cells [1] | Arf6 activation (Arf6-GTP, GGA3 pulldown and immunoblot), fold over sham transfected cells [1]
renilla luciferase-HAx3-A350V IQSEC2 (from UniProt Q5JU85 1-1488) | 30 fold | 25% | 0.075 | 48 | 1 µM | 594 |  |  |  |  |  |  |  |  | 
renilla luciferase-HAx3-wild type IQSEC2 (full length human IQSEC2, pcDNA3.1 Zeo construct) (from UniProt Q5JU85 1-1488) |  |  | 0.06 |  |  |  | 36 fold | 15 fold | 34 fold | 1.07 fold | 31 fold | 14 fold | 31 fold |  | 
FLAG-tagged wild type IQSEC2 (pCAGGS) (from UniProt Q5JU85 1-1488) |  |  |  |  |  |  |  |  |  |  |  |  |  | 8.03 fold | 3.87 fold
